Reference: the supplement of paper PMC10567573

B1: USP39 (parent)
chain: FVEKNPTIVNFPITNVDLREYLSE

Variants of: B1
Assay: protein stability index of a GFP-peptide fusion (GPS, HEK-293T) (PSI 1-6); higher = more stable
Conditions: c terminus: a fixed tail appended
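Also: lentivirally expressed fusions sorted by FACS into six bins by GFP to DsRed ratio, PSI derived from sequencing read proportions per bin multiplied by bin number.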

Protein stability index, by site and new letter:
L22: M 2.07; E 1.75; Q 2.44; H 1.5; W 1.74; I 1.93; V 1.83; D 1.64; A 2.47; K 2.09; S 2.49; G 2.12; R 1.66; N 1.47; Y 1.9; P 1.84; C 1.12; F 2.1; T 2.03
E20: I 2.01; V 2.28; W 1.77; K 2.56; S 2.5; H 2.01; L 1.39; N 1.55; C 1.68; R 1.41; P 2.02; D 1.81; A 1.46; F 1.71; G 1.13; M 2.41; Q 2.08; T 1.46; Y 2.88
V16: T 2.94; Q 1.99; P 2.29; I 1.6; E 2.04; R 2.78; K 1.74; M 2.37; L 2.05; Y 1.62; H 1.49; F 1.8; D 1.89; A 2.02; N 1.49; S 1.82; G 1.89; W 1.52; C 1.41
T14: V 2.08; S 2.08; P 1.54; M 1.57; R 2.78; Y 1.97; L 1.86; K 1.73; N 2.67; Q 1.81; W 3.7
R19: K 1.78; T 1.63; H 1.25; C 2.05; S 1.31; D 1.44; F 2.81; G 1.64; A 2.92; E 2.09; L 2.06; W 2.13; I 2.49; M 1.65; P 2.08; V 1.83; Y 2.1; N 1.99; Q 2.35
Y21: D 1.71; A 2.35; E 2.21; W 1.47; I 2.04; L 2.27; C 1.6; Q 1.87; V 1.52; P 1.62; F 2.04; K 1.21; S 2.27; H 2.84; M 1.49; N 1.9; R 1.57; T 1.86; G 2.44
D17: T 1.35; S 2.28; H 2.25; Q 1.92; Y 1.84; I 3.11; G 2.02; E 1.95; C 2.08; N 1.55; L 1.28; R 2.25; M 1.62; W 1.4; F 2.63; P 1.34; A 2.46; K 1.11; V 2.64
L18: H 1.42; I 2.53; P 1.24; C 2.64; E 2.05; T 1.54; G 2.1; V 2.65; W 2.33; D 2.21; N 1.78; Y 1.92; S 1.43; Q 2.64; R 1.71; M 1.64; K 1.3; F 2.06; A 1.69
S23: G 1.34; F 2.12; C 2.41; E 1.83; A 1.57; H 2.76; D 1.84
N15: H 1.44; R 2.21; K 2.13; D 1.56; C 1.77; I 2.26; G 1.37; M 2.12; L 2.05; V 2.27; P 1.45; Y 2.3; S 1.18; T 1.43; A 1.52; Q 2.13
